In patent US20160272683A1 (Novo Nordisk, published 2016):
Numbered stars: 1 amine (or outer) side, 2 acyl side, 3 side chain; on linkers, the order of the positions; unused ones are H or OH. * marks the point of attachment. C20 diacid = O=C(O)CCCCCCCCCCCCCCCCCCC(=O)*; C18 diacid = O=C(O)CCCCCCCCCCCCCCCCC(=O)*; γGlu = O=C(O)[C@H](CCC(=O)[*:2])N[*:1]

How the values were obtained:
[1] = molecular target: T1, human amylin 3(a) receptor (human calcitonin receptor co-expressed with RAMP-3) (human, UniProt P30988 25-474; O60896 24-148, limits assumed); assay: cell-based or functional assay
T1 sequence (looked up) 1: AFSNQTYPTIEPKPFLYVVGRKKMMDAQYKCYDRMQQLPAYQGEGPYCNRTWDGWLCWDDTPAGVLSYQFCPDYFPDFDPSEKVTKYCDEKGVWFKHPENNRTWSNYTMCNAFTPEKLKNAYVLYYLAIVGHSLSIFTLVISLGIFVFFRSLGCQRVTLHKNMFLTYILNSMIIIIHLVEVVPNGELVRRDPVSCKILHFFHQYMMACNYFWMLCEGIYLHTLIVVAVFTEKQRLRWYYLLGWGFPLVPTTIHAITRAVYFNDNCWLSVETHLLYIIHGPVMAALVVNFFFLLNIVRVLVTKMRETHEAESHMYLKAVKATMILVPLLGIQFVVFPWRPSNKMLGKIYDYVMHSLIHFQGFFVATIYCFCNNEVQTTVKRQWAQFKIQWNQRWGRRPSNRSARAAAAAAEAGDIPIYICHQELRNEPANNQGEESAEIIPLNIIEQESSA
T1 sequence (looked up) 2: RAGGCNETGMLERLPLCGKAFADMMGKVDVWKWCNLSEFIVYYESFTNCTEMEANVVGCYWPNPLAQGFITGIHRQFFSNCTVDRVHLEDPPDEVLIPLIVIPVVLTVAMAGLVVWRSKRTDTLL

[2] = molecular target: T2, human calcitonin receptor (human, UniProt P30988 25-474); assay: cell-based or functional assay
T2 sequence (looked up): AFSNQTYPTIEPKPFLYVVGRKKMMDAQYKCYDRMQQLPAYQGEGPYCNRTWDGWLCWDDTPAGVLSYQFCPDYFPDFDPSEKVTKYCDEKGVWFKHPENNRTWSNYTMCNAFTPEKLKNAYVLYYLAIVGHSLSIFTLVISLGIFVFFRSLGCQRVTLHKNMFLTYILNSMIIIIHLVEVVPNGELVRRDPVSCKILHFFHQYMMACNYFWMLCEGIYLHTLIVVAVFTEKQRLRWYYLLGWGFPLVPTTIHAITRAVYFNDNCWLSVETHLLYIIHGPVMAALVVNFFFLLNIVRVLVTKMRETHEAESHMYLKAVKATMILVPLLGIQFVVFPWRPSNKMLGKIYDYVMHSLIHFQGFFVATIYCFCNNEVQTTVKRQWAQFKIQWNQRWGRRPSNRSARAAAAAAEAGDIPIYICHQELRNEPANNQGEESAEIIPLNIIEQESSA

B1: [N-terminal(C20 diacid-gGlu), des1, 21S, 23Y, 30S, 31G]mimylin (peptide)
peptide: {C20 diacid-γGlu}-ASELSTAALGRLSAELHELSTYPRTETGSGSP-NH2
SMILES: CC(C)C[C@H](NC(=O)[C@H](C)NC(=O)[C@H](C)NC(=O)[C@@H](NC(=O)[C@H](CO)NC(=O)[C@H](CC(C)C)NC(=O)[C@H](CCC(=O)O)NC(=O)[C@H](CO)NC(=O)[C@H](C)NC(=O)CC[C@H](NC(=O)CCCCCCCCCCCCCCCCCCC(=O)O)C(=O)O)[C@@H](C)O)C(=O)NCC(=O)N[C@@H](CCCNC(=N)N)C(=O)N[C@@H](CC(C)C)C(=O)N[C@@H](CO)C(=O)N[C@@H](C)C(=O)N[C@@H](CCC(=O)O)C(=O)N[C@@H](CC(C)C)C(=O)N[C@@H](Cc1c[nH]cn1)C(=O)N[C@@H](CCC(=O)O)C(=O)N[C@@H](CC(C)C)C(=O)N[C@@H](CO)C(=O)N[C@H](C(=O)N[C@@H](Cc1ccc(O)cc1)C(=O)N1CCC[C@H]1C(=O)N[C@@H](CCCNC(=N)N)C(=O)N[C@H](C(=O)N[C@@H](CCC(=O)O)C(=O)N[C@H](C(=O)NCC(=O)N[C@@H](CO)C(=O)NCC(=O)N[C@@H](CO)C(=O)N1CCC[C@H]1C(N)=O)[C@@H](C)O)[C@@H](C)O)[C@@H](C)O
- hAmylin-R funct. EC50 (pM) [1]: 33 pM
- hCTR funct. EC50 (pM) [2]: 27 pM

B2: [N-terminal(C18 diacid), 5I]mimylin (peptide)
peptide: {C18 diacid}-EASEISTAALGRLSAELHELATLPRTETGPESP-NH2
SMILES: CC[C@H](C)[C@H](NC(=O)[C@H](CCC(=O)O)NC(=O)[C@H](CO)NC(=O)[C@H](C)NC(=O)[C@H](CCC(=O)O)NC(=O)CCCCCCCCCCCCCCCCC(=O)O)C(=O)N[C@@H](CO)C(=O)N[C@H](C(=O)N[C@@H](C)C(=O)N[C@@H](C)C(=O)N[C@@H](CC(C)C)C(=O)NCC(=O)N[C@@H](CCCNC(=N)N)C(=O)N[C@@H](CC(C)C)C(=O)N[C@@H](CO)C(=O)N[C@@H](C)C(=O)N[C@@H](CCC(=O)O)C(=O)N[C@@H](CC(C)C)C(=O)N[C@@H](Cc1c[nH]cn1)C(=O)N[C@@H](CCC(=O)O)C(=O)N[C@@H](CC(C)C)C(=O)N[C@@H](C)C(=O)N[C@H](C(=O)N[C@@H](CC(C)C)C(=O)N1CCC[C@H]1C(=O)N[C@@H](CCCNC(=N)N)C(=O)N[C@H](C(=O)N[C@@H](CCC(=O)O)C(=O)N[C@H](C(=O)NCC(=O)N1CCC[C@H]1C(=O)N[C@@H](CCC(=O)O)C(=O)N[C@@H](CO)C(=O)N1CCC[C@H]1C(N)=O)[C@@H](C)O)[C@@H](C)O)[C@@H](C)O)[C@@H](C)O
- hAmylin-R funct. EC50 (pM) [1]: 7 pM
- hCTR funct. EC50 (pM) [2]: 7 pM

B3: [N-terminal(C20 diacid-gGlu), des1, 23Y, 30S, 31G, 34G, C-terminal(-)]mimylin (peptide)
peptide: {C20 diacid-γGlu}-ASELSTAALGRLSAELHELATYPRTETGSGSPG-OH
SMILES: CC(C)C[C@H](NC(=O)[C@H](C)NC(=O)[C@H](C)NC(=O)[C@@H](NC(=O)[C@H](CO)NC(=O)[C@H](CC(C)C)NC(=O)[C@H](CCC(=O)O)NC(=O)[C@H](CO)NC(=O)[C@H](C)NC(=O)CC[C@H](NC(=O)CCCCCCCCCCCCCCCCCCC(=O)O)C(=O)O)[C@@H](C)O)C(=O)NCC(=O)N[C@@H](CCCNC(=N)N)C(=O)N[C@@H](CC(C)C)C(=O)N[C@@H](CO)C(=O)N[C@@H](C)C(=O)N[C@@H](CCC(=O)O)C(=O)N[C@@H](CC(C)C)C(=O)N[C@@H](Cc1c[nH]cn1)C(=O)N[C@@H](CCC(=O)O)C(=O)N[C@@H](CC(C)C)C(=O)N[C@@H](C)C(=O)N[C@H](C(=O)N[C@@H](Cc1ccc(O)cc1)C(=O)N1CCC[C@H]1C(=O)N[C@@H](CCCNC(=N)N)C(=O)N[C@H](C(=O)N[C@@H](CCC(=O)O)C(=O)N[C@H](C(=O)NCC(=O)N[C@@H](CO)C(=O)NCC(=O)N[C@@H](CO)C(=O)N1CCC[C@H]1C(=O)NCC(=O)O)[C@@H](C)O)[C@@H](C)O)[C@@H](C)O
- hAmylin-R funct. EC50 (pM) [1]: 187 pM
- hCTR funct. EC50 (pM) [2]: 64 pM

B4: [N-terminal(C20 diacid-gGlu), des1, 12H, 25H, 30S, 31G]mimylin (peptide)
peptide: {C20 diacid-γGlu}-ASELSTAALGHLSAELHELATLPHTETGSGSP-NH2
SMILES: CC(C)C[C@H](NC(=O)[C@H](C)NC(=O)[C@H](C)NC(=O)[C@@H](NC(=O)[C@H](CO)NC(=O)[C@H](CC(C)C)NC(=O)[C@H](CCC(=O)O)NC(=O)[C@H](CO)NC(=O)[C@H](C)NC(=O)CC[C@H](NC(=O)CCCCCCCCCCCCCCCCCCC(=O)O)C(=O)O)[C@@H](C)O)C(=O)NCC(=O)N[C@@H](Cc1c[nH]cn1)C(=O)N[C@@H](CC(C)C)C(=O)N[C@@H](CO)C(=O)N[C@@H](C)C(=O)N[C@@H](CCC(=O)O)C(=O)N[C@@H](CC(C)C)C(=O)N[C@@H](Cc1c[nH]cn1)C(=O)N[C@@H](CCC(=O)O)C(=O)N[C@@H](CC(C)C)C(=O)N[C@@H](C)C(=O)N[C@H](C(=O)N[C@@H](CC(C)C)C(=O)N1CCC[C@H]1C(=O)N[C@@H](Cc1c[nH]cn1)C(=O)N[C@H](C(=O)N[C@@H](CCC(=O)O)C(=O)N[C@H](C(=O)NCC(=O)N[C@@H](CO)C(=O)NCC(=O)N[C@@H](CO)C(=O)N1CCC[C@H]1C(N)=O)[C@@H](C)O)[C@@H](C)O)[C@@H](C)O
- hAmylin-R funct. EC50 (pM) [1]: 26 pM
- hCTR funct. EC50 (pM) [2]: 12 pM

B5: [N-terminal(C18 diacid-gGlu), des1, 6T, 9V, 30S, 31G]mimylin (peptide)
peptide: {C18 diacid-γGlu}-ASELTTAVLGRLSAELHELATLPRTETGSGSP-NH2
SMILES: CC(C)C[C@H](NC(=O)[C@H](CCC(=O)O)NC(=O)[C@H](Cc1c[nH]cn1)NC(=O)[C@H](CC(C)C)NC(=O)[C@H](CCC(=O)O)NC(=O)[C@H](C)NC(=O)[C@H](CO)NC(=O)[C@H](CC(C)C)NC(=O)[C@H](CCCNC(=N)N)NC(=O)CNC(=O)[C@H](CC(C)C)NC(=O)[C@@H](NC(=O)[C@H](C)NC(=O)[C@@H](NC(=O)[C@@H](NC(=O)[C@H](CC(C)C)NC(=O)[C@H](CCC(=O)O)NC(=O)[C@H](CO)NC(=O)[C@H](C)NC(=O)CC[C@H](NC(=O)CCCCCCCCCCCCCCCCC(=O)O)C(=O)O)[C@@H](C)O)[C@@H](C)O)C(C)C)C(=O)N[C@@H](C)C(=O)N[C@H](C(=O)N[C@@H](CC(C)C)C(=O)N1CCC[C@H]1C(=O)N[C@@H](CCCNC(=N)N)C(=O)N[C@H](C(=O)N[C@@H](CCC(=O)O)C(=O)N[C@H](C(=O)NCC(=O)N[C@@H](CO)C(=O)NCC(=O)N[C@@H](CO)C(=O)N1CCC[C@H]1C(N)=O)[C@@H](C)O)[C@@H](C)O)[C@@H](C)O
- hAmylin-R funct. EC50 (pM) [1]: 33 pM
- hCTR funct. EC50 (pM) [2]: 28 pM

Binder: {C20 diacid-γGlu}-ASELSTAALGRLSAELHELATYPRTETGSGSY-OH [[N-terminal(C20 diacid-gGlu), des1, 23Y, 30S, 31G, 33Y, C-terminal(-)]mimylin]
- hAmylin-R funct. EC50 (pM) [1]: 461 pM
- hCTR funct. EC50 (pM) [2]: 127 pM

Binder: {C18 diacid-γGlu}-ASEVSTAVLGRLSAELHELATLPRTETGSGSP-NH2 [[N-terminal(C18 diacid-gGlu), des1, 5V, 9V, 30S, 31G]mimylin]
- hAmylin-R funct. EC50 (pM) [1]: 32 pM
- hCTR funct. EC50 (pM) [2]: 13 pM

B6: [N-terminal(C18 diacid-gGlu), des1, 4Q, 16Q, 30S, 31G]mimylin (peptide)
peptide: {C18 diacid-γGlu}-ASQLSTAALGRLSAQLHELATLPRTETGSGSP-NH2
SMILES: CC(C)C[C@H](NC(=O)[C@H](C)NC(=O)[C@H](C)NC(=O)[C@@H](NC(=O)[C@H](CO)NC(=O)[C@H](CC(C)C)NC(=O)[C@H](CCC(N)=O)NC(=O)[C@H](CO)NC(=O)[C@H](C)NC(=O)CC[C@H](NC(=O)CCCCCCCCCCCCCCCCC(=O)O)C(=O)O)[C@@H](C)O)C(=O)NCC(=O)N[C@@H](CCCNC(=N)N)C(=O)N[C@@H](CC(C)C)C(=O)N[C@@H](CO)C(=O)N[C@@H](C)C(=O)N[C@@H](CCC(N)=O)C(=O)N[C@@H](CC(C)C)C(=O)N[C@@H](Cc1c[nH]cn1)C(=O)N[C@@H](CCC(=O)O)C(=O)N[C@@H](CC(C)C)C(=O)N[C@@H](C)C(=O)N[C@H](C(=O)N[C@@H](CC(C)C)C(=O)N1CCC[C@H]1C(=O)N[C@@H](CCCNC(=N)N)C(=O)N[C@H](C(=O)N[C@@H](CCC(=O)O)C(=O)N[C@H](C(=O)NCC(=O)N[C@@H](CO)C(=O)NCC(=O)N[C@@H](CO)C(=O)N1CCC[C@H]1C(N)=O)[C@@H](C)O)[C@@H](C)O)[C@@H](C)O
- hAmylin-R funct. EC50 (pM) [1]: 9 pM
- hCTR funct. EC50 (pM) [2]: 13 pM

B7: [N-terminal(C20 diacid-gGlu), -1E, 1A, 23Y, 30S, 31G]mimylin (peptide)
peptide: {C20 diacid-γGlu}-EAASELSTAALGRLSAELHELATYPRTETGSGSP-NH2
SMILES: CC(C)C[C@H](NC(=O)[C@H](C)NC(=O)[C@H](C)NC(=O)[C@@H](NC(=O)[C@H](CO)NC(=O)[C@H](CC(C)C)NC(=O)[C@H](CCC(=O)O)NC(=O)[C@H](CO)NC(=O)[C@H](C)NC(=O)[C@H](C)NC(=O)[C@H](CCC(=O)O)NC(=O)CC[C@H](NC(=O)CCCCCCCCCCCCCCCCCCC(=O)O)C(=O)O)[C@@H](C)O)C(=O)NCC(=O)N[C@@H](CCCNC(=N)N)C(=O)N[C@@H](CC(C)C)C(=O)N[C@@H](CO)C(=O)N[C@@H](C)C(=O)N[C@@H](CCC(=O)O)C(=O)N[C@@H](CC(C)C)C(=O)N[C@@H](Cc1c[nH]cn1)C(=O)N[C@@H](CCC(=O)O)C(=O)N[C@@H](CC(C)C)C(=O)N[C@@H](C)C(=O)N[C@H](C(=O)N[C@@H](Cc1ccc(O)cc1)C(=O)N1CCC[C@H]1C(=O)N[C@@H](CCCNC(=N)N)C(=O)N[C@H](C(=O)N[C@@H](CCC(=O)O)C(=O)N[C@H](C(=O)NCC(=O)N[C@@H](CO)C(=O)NCC(=O)N[C@@H](CO)C(=O)N1CCC[C@H]1C(N)=O)[C@@H](C)O)[C@@H](C)O)[C@@H](C)O
- hAmylin-R funct. EC50 (pM) [1]: 17 pM
- hCTR funct. EC50 (pM) [2]: 15 pM
